Reference: the supplement of paper PMC10567573
± gives the standard deviation.

Experiment: protein stability index of a GFP-peptide fusion (GPS, HEK-293T) (PSI 1-6); higher = more stable
[1] = treatment: DMSO, c terminus: a fixed tail appended
[2] = treatment: MLN4924 1 uM, 8 h, c terminus: a fixed tail appended
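Also: 24-mer peptide tiles fused after GFP, lentivirally expressed, FACS-sorted into six equal bins by GFP/DsRed ratio, decoded by Illumina sequencing, PSI is the read-weighted mean bin number.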

Sequence	protein stability index [1]	protein stability index [2]	protein stability index (treatment: DMSO, c terminus: native)	protein stability index (treatment: MLN4924 1 uM, 8 h, c terminus: native)
FLTTAIRPHGIFGPRDPQLVPILI [NSDHL]	2.69 ± 0.53	2.42 ± 0.41	–	–
FLVVLKTVLENEDDMLLFDEQEKG [FAN1]	2.34 ± 0.23	2.28 ± 0.26	–	–
FPELGYSYGGGSASSQHSEGSRSS [DVL3]	3.39 ± 0.28	4.03 ± 0.53	–	–
FPRLNRNKYMVTDGAAYIGNFDWV [PLD5]	2.32 ± 0.89	2.32 ± 0.23	–	–
FQFLSWPDYGVPSSAASLIDFLRV [PTPN9]	2.7 ± 0.36	2.53 ± 0.41	–	–
FRQLCYQETPGPREALTRLQELCY [ZSCAN9]	2.48 ± 0.14	2.62 ± 0.25	–	–
FSQETVMKFVPRYSLVLELSDSGA [APMAP]	2.75 ± 0.71	2.09 ± 0.27	–	–
FSSYNKQDNNCHFDAALVSFINFF [SLC6A17]	2.81 ± 0.39	2.64 ± 0.41	–	–
FVDFFVRLFTQLKFGVVQTSVEEC [CLCN6]	3.59 ± 0.27	3.07 ± 0.68	–	–
FYIGKYFGGVLEYFMIQALNQKTS [RHOBTB3]	2.96 ± 0.33	3.31 ± 0.58	–	–
FYKDWWNSTSYSNYYRTWNVVVHD [SOAT1]	2.46 ± 0.39	2.15 ± 0.31	–	–
GALPVGSNLTSNLASLVSQGMIQL [RETREG3]	2.21 ± 0.24	2.46 ± 0.16	–	–
GAPTSLQTEPQDRSPAPMSCDKST [BCL2L11]	5.36 ± 0.3	5.36 ± 0.1	–	–
GARCATWFQDPTRFTGTMDAFVKI [SLC25A39]	2.36 ± 0.5	2.61 ± 0.54	–	–
GATYLELHSLDDFYIGKYFGGVLE [RHOBTB3]	2.6 ± 0.61	2.32 ± 0.23	–	–
GAVTASKHSNSPPLVTPPQSPVSP [SMTNL2]	5.33 ± 0.25	5.26 ± 0.19	–	–
GCKGFFRRSMKRKALFTCPFNGDC [VDR]	2.47 ± 0.43	2.21 ± 0.14	–	–
GDLAYRRQEYQKALQEYSSISEKL [C8orf76]	4.14 ± 0.25	4.16 ± 0.2	–	–
GDLQETTVVTGLGPDTQDLEGQSP [PBXIP1]	5.62 ± 0.23	5.58 ± 0.2	–	–
GDVAIKLKFLEENKIKVMHKQLLL [ARFIP2]	2.25 ± 0.31	2.12 ± 0.26	–	–
GDVMFTGTADGRVVKLENGEIETI [APMAP]	4.73 ± 0.51	5.06 ± 0.29	–	–
GEATAAPAPLCGGPSAEAYLLHPA [TBX6]	4.17 ± 0.22	4.47 ± 0.13	–	–
GEGVDKLSLPARNQAGYFMLPTVI [ALDH8A1]	2.19 ± 0.18	2.36 ± 0.18	–	–

Sequence	protein stability index [1]	protein stability index [2]	protein stability index (treatment: DMSO, c terminus: native)	protein stability index (treatment: MLN4924 1 uM, 8 h, c terminus: native)
GELLATGDKGGRVVIFQREPESKN [PPP2R2C]	4.61 ± 0.37	4.93 ± 0.21	–	–
GEQDCCGERVVINISGLRFETQLK [KCNA3]	2.52 ± 0.21	2.57 ± 0.35	–	–
GEQDTWAGEGAEALARNLLVDGET [NFE2L1]	5.18 ± 0.57	5.15 ± 0.46	–	–
GEVIHCKLRAMKELSEAAEAQHGP [STX11]	4.03 ± 0.38	4.22 ± 0.11	–	–
GEVLKSSTFSSGPSDKMKWCLRVN [SPOPL]	2.46 ± 0.26	2.43 ± 0.23	–	–
GFPRVAPEDEVIVNQYVIRPGPSA [RNF208]	3.66 ± 0.25	3.67 ± 0.13	–	–
GFSCNQGRYPLIQTLRQELSLPYL [CHIT1]	2.16 ± 0.33	2.4 ± 0.24	–	–
GGDGDDMEIFMEEMREIRRKLREL [BEX3]	3.13 ± 0.49	2.04 ± 0.4	–	–
GGFGGGVGGGFGGGFGGGDGGLLS [KRT15]	3.4 ± 0.71	3.98 ± 0.14	–	–
GGGADTGTGGEEVEALQLSARWLE [FBXO33]	4.91 ± 0.41	5.03 ± 0.43	–	–
GGGGQGDGGSSLASGSTQRQPPPP [FBXO28]	5.38 ± 0.19	5.27 ± 0.29	–	–
GGGPGDGGGADTGTGGEEVEALQL [FBXO33]	5.38 ± 0.16	5.32 ± 0.37	–	–
GGLLSYDEGGITKQPPVTQSKTAS [FBF1]	4.96 ± 0.18	4.89 ± 0.33	–	–
GGTVKLADFGLARIYSYQMALTPV [CDK4]	2.36 ± 0.27	2.17 ± 0.11	–	–
GGYGGGVSCGFGGGAGSGFGGGYG [KRT13]	2.23 ± 0.19	2.38 ± 0.28	–	–
GHRPPPARSGHRCVADNTNLYVFG [KLHDC10]	2.3 ± 0.33	2.44 ± 0.24	–	–
GILRRILRTLRDFPAEERARVLDR [ANKRD9]	2.39 ± 0.28	2.47 ± 0.65	–	–
GIVESIQIMKEGKATASEAVDCKW [NETO1]	3.71 ± 1.3	3.99 ± 0.2	–	–
GIVLQGPALCFAAAIFSLFFVPLS [TMEM175]	2.89 ± 0.34	2.83 ± 0.17	–	–
GKAYGWCSELIRHRRVHARKEPSH [ZNF232]	3.23 ± 0.17	3.26 ± 0.38	–	–
GKKKISKADIGAPSGFKHVSHVGW [WAS]	3.06 ± 0.24	3.1 ± 0.15	–	–
GKKQEYLENRIQREIALAKKHGTQ [CHMP4C]	3.92 ± 0.35	4.13 ± 0.14	–	–
GKTFKQSSNLGQHQRIHTGEKPFE [ZNF232]	4.46 ± 0.41	4.48 ± 0.17	–	–

Sequence	protein stability index [1]	protein stability index [2]	protein stability index (treatment: DMSO, c terminus: native)	protein stability index (treatment: MLN4924 1 uM, 8 h, c terminus: native)
GLRAATMSAVEAATCRAKELSRK [PYCR3]	–	–	5.1 ± 0.95	4.97 ± 0.18
GLSQAPQPLADEGPPGRSIGGAAP [SERTAD1]	5.05 ± 0.31	5.29 ± 0.21	–	–
GMAFFKMREMFFEDHIDDAKYCGH [CNOT7]	2.35 ± 0.2	2.36 ± 0.16	–	–
GMVTRCIIEVLSNALSKSSAPPIT [CHGB]	3.07 ± 0.29	3.08 ± 0.23	–	–
GNATLLRIIYQNKCMRNGPNALIA [EDNRA]	2.66 ± 0.79	2.51 ± 0.32	–	–
GNDFTQNAGTGLVINQADVRNNRS [PLD5]	4.58 ± 0.35	4.55 ± 0.35	–	–
GNFPTMEVKPKDIIHVVKDQLIGQ [TENT5D]	4.08 ± 0.33	3.98 ± 0.35	–	–
GNLQLDCLAQGWKQYQQRAFGWFR [RTP4]	2.3 ± 0.5	2.24 ± 0.23	–	–
GPGPQLRRGWRPSSREDSLEAGLP [CHGA]	3.86 ± 0.14	4.24 ± 0.31	–	–
GPHEAFNKLWELCCQWLKPKMRSK [ZNF449]	2.67 ± 0.88	2.99 ± 0.71	–	–
GPVGTDFKPLNSTPATTTEPPKPT [ZNF207]	5.24 ± 0.21	5.19 ± 0.23	–	–
GQALLTHLYQSSARRYAGPLHHQT [ELAVL3]	2.4 ± 0.14	2.71 ± 0.097	–	–
GRHLELANQKLSEKLAAGALPHIN [CCDC3]	3.46 ± 0.42	3.79 ± 0.36	–	–
GRTHQWKPLYPDDYVHISSKPCDL [ADAMTSL2]	3.25 ± 0.3	3.42 ± 0.093	–	–
GRVLLANSTQADEGKTKKGVLEAP [FBXO34]	5.01 ± 0.17	4.9 ± 0.13	–	–
GSNEYTEGPSVVKRPAPRTAPRQE [SPRY1]	4.9 ± 0.28	5.3 ± 0.17	–	–
GSNLDDAKGLAESLELPKAIQDQL [FANCE]	5.08 ± 0.53	5.3 ± 0.33	–	–
GSSRSPGSKARAEGRGPVTPLHLD [PLEKHN1]	4.91 ± 0.16	4.74 ± 0.21	–	–
GTDRIVKIWDMTPVVGCSLATGFS [WDFY1]	2.66 ± 0.16	2.79 ± 0.48	–	–
GTELIQTPLASSTDHQTPPTSPVQ [HDAC6]	5.11 ± 0.33	5.25 ± 0.29	–	–
GTFCSLDICLAQLEELGTLNVFQT [PTPN9]	2.93 ± 0.92	2.24 ± 0.46	–	–
GTVHCQIVSTQITRPSGNNGNRRR [PHTF1]	4.25 ± 0.18	4.51 ± 0.21	–	–
GVRESETEQGFGEDLEDLGAVAPP [NFE2L1]	5.763 ± 0.026	5.9 ± 0.1	–	–

Sequence	protein stability index [1]	protein stability index [2]	protein stability index (treatment: DMSO, c terminus: native)	protein stability index (treatment: MLN4924 1 uM, 8 h, c terminus: native)
GVYSMPAGTKVFEVPEMSPVTCCD [TLE6]	3.84 ± 0.33	3.45 ± 0.24	–	–
HAGEHLLLGATKRSMVFKDVLLLG [HNF4A]	2.26 ± 0.33	2.35 ± 0.4	–	–
HCPDCGQQWFPSLELGHWLYQTEL [TOR1AIP2]	2.31 ± 0.57	2.52 ± 0.41	–	–
HCRKCGQAVCGKCSSKRSSYPVMG [WDFY1]	3.88 ± 0.3	3.91 ± 0.34	–	–
HFSQGSALILHQRIHSGEKPYGCV [ZNF24]	2.24 ± 0.37	2.55 ± 0.47	–	–
HFSQIVIFMLCTLVLAIPLLLILV [OR10K2]	2.24 ± 0.25	2.25 ± 0.19	–	–
HGNSGHPLVLSYIDLSAWCYYCQA [HDAC6]	2.73 ± 0.55	3.14 ± 0.58	–	–
HHREGLLAIFKSGGIPALVKMLGS [CTNNB1]	2.82 ± 0.39	2.71 ± 0.64	–	–
HHSRGNTNKFYMLDSRSTDRVLQW [KLHDC2]	2.65 ± 0.39	2.72 ± 0.19	–	–
HITKLKPWSLFDVLVEKYGWPHED [SRPK2]	2.23 ± 0.33	2.38 ± 0.11	–	–
HKVKAEEEKKAKVAPPAKQAQQKK [BRD3]	5.5 ± 0.22	5.5 ± 0.29	–	–
HLFAGAEVILLVVMAYDRYMAICK [OR4A15]	2.67 ± 0.29	3.02 ± 0.68	–	–
HLYAEPQKSPWCEARSLEHTLPVN [ESR2]	2.93 ± 0.23	3.38 ± 0.24	–	–
HLYQSSARRYAGPLHHQTQRFRLD [ELAVL3]	2.99 ± 0.18	3.05 ± 0.32	–	–
HNQIAIYAHQPRTADEIPMEPGDI [FUT8]	4.6 ± 0.19	4.52 ± 0.18	–	–
HNRKKHLNGLQHLKAKKVWYDMFR [ZMAT5]	2.22 ± 0.44	2.38 ± 0.27	–	–
HNSGPPPPPARGRGAPPPPPSRAP [WASL]	5.25 ± 0.29	5.06 ± 0.15	–	–
HNTVKLGAFQAQEKELVFDIDMTD [PRIM1]	4.22 ± 0.19	4.52 ± 0.28	–	–
HPLAQNERCLHMFLQEEAIDRNYV [SNX12]	3.17 ± 0.4	3.18 ± 0.28	–	–
HQRKYTQSFCGENIMMPMGGMMPP [ZNF207]	2.34 ± 0.15	2.49 ± 0.16	–	–
